# Measurements from patent publication US20250304677A1 (VIB VZW, published 2025).
# B1: VHH 3MFR60 (family 10) (VHH)
# VHH: QVQLQESGGGLVQAGGSLRVSCAASGIIFSMNGMGWFRQAPGKQRELVASITSGGSTKYADSVKGRFTISRDNAKNTVYLQMNSLKPEDTAVYYCNIQFGSRWSTYWGQGTQVTVSS
# B2: VHH 2HFO19 (family 1) (VHH)
# VHH: QVQLQESGGGLVQPGGSLRVSCAASGFPFSTVYMSWVRQAPGKGLEWVSGINNDGGVIDYADSVKGRFTISRDNAKNTLYLQLNSLKPEDTALYFCARGRSFVATLSSSLRGQGTQVTVSS
# notes: also called Nb19
# What was measured:
# [1] = molecular target: T1, mouse folate receptor alpha (mFRα), recombinant protein (mouse, UniProt P35846 25-232); assay: ELISA on coated mouse FOLR1, without and with 100 µM folic acid (series not separable)
# T1 construct: Bought recombinant proteins (e.g. biotinylated, Acro Biosystems FO1-M82E9); also called mFOLR1; Ms FOLR1
# T1 sequence (P35846 25-232 limits assumed): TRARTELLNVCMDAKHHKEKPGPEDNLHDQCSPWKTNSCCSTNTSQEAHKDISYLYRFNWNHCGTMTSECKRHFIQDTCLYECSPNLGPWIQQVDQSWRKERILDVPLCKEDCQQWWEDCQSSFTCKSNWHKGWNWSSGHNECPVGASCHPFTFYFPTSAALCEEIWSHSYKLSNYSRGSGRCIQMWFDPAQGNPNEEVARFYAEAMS
# Procedure: (§1) Data were normalized and technical replicates were plotted as mean±SD. Data were fitted by non-linear regression and the half-maximal effective concentration ^{∘}EC50) was calculated using GraphPad Prism 9 software. ^{∘}FIG. 1C and FIG. 1D) Binding affinity determination of anti-FOLR1 VHHs for native FOLR1. Mouse ^{∘}FIG. 1C) or human FOLR1 FIG. 1D) was overexpressed on HEK293T cells and binding of the anti-FOLR1 VHHs was assessed using flow cytometry. The mean fluorescence intensity ^{∘}MFI) of the phycoerythrin signal was plotted for each VHH concentration. Data were fitted by non-linear regression using GraphPad Prism 9 software. ^{∘}FIG. 1E) Determination of the competition of representative family members with folic acid ^{∘}FA) using ELISA. Mouse FOLR1 was coated on the plate and was pre-incubated with or without 100 μM FA before adding the VHHs. Data were fitted by non-linear regression using GraphPad Prism 9 software.
# As interference with the endogenous transport of folates via FRα could have serious implications on brain homeostasis, competition between representative family members and FA for mouse FRα binding was assessed via ELISA ^{∘}FIG. 1E).
# [2] = molecular target: T1, mouse folate receptor alpha (mFRα), …; assay: ELISA on recombinant FRα, cMyc tag detection
# Procedure: as §1
# (§2) In a first step, binding affinity and cross-reactivity of the purified VHHs to human and mouse FRα was assessed by ELISA, using detection of the cMyc tag ^{∘}FIG. 1A-B). […] 2HFO19 ^{∘}family 1) was the best binder of all tested VHHs to both mouse and human FRα with an EC₅₀ of 0.1 nM and 0.4 nM respectively ^{∘}FIG. 1A-B).
# [3] = molecular target: T2, human folate receptor alpha (hFRα), recombinant protein (human, UniProt P15328 25-233); assay: ELISA on recombinant FRα, cMyc tag detection
# T2 construct: Bought recombinant proteins (His-tagged, or biotinylated via Avi-tag, e.g. AcroBiosystems FO1-H82E2, F01-H52H1); also called hFOLR1; huFOLR1
# T2 sequence (P15328 25-233 limits assumed): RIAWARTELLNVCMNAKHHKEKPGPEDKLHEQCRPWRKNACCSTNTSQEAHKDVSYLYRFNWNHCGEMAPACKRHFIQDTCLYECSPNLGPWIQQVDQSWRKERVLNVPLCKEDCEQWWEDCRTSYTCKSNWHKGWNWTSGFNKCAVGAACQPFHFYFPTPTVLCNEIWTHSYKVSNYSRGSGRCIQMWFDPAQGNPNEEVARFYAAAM
# Procedure: as §1, §2
binder,measurement,setting,value
B1,EC50 (read off the curve),[1],~3 nM
B2,EC50,[2],0.1 nM
same,EC50,[3],0.4 nM
